Patent US20220009979A1 (Alexion, published 2022)

Target: T1, Purified C3d (Quidel, San Diego, Calif.) (UniProt P01024 1002-1303, biotinylated via sulfo-NHS-LC linkage)
T1 construct: domain: C3d; also called immobilized C3d
Assay: Octet BLI; biotinylated C3d immobilized on streptavidin biosensors, construct in solution at 2 uM, 600 s association, 1200 s dissociation

T1 sequence (P01024 1002-1303 limits assumed): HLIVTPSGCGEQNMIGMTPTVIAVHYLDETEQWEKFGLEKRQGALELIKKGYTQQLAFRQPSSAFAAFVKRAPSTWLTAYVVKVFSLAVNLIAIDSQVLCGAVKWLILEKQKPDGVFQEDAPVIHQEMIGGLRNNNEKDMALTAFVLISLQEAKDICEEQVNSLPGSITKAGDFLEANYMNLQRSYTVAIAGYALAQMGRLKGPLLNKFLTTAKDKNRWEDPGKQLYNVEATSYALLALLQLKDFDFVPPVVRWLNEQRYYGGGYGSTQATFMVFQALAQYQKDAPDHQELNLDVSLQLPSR

B1: Compound AC (Fc fusion)
chain: ISCGSPPPILNGRISYYSTPIAVGTVIRYSCSGTFRLIGEKSLLCITKDKVDGTWDKPAPKCEYFNKYSSCPEPIVPGGYKIRGSTPYRHGDSVTFACKTNFSMNGQKSVWCQANNMWGPTRLPTCVSVFPGGGGSDAAVECPPCPAPPVAGPSVFLFPPKPKDTLMISRTPEVTCVVVDVSQEDPEVQFNWYVDGVEVHNAKTKPREEQFNSTYRVVSVLTVLHQDWLNGKEYKCKVSNKGLPSSIEKTISKAKGQPREPQVYTLPPSQEEMTKNQVSLTCLVKGFYPSDIAVEWESNGQPENNYKTTPPVLDSDGSFFLYSRLTVDKSRWQEGNVFSCSVMHEALHNHYTQKSLSLSLGKGGGGAGGGGAGGGAGGGGSEDCNELPPRRNTEILTGSWSDQTYPEGTQAIYKCRPGYRSLGNVIMVCRKGEWVALNPLRKCQKRPCGHPGDTPFGTFTLTGGNVFEYGVKAVYTCNEGYQLLGEINYRECDTDGWTNDIPICEVVKCLPVTAPENGKIVSSAMEPDREYHFGQAVRFVCNSGYKIEGDEEMHCSDDGFWSKEKPKCVEISCKSPDVINGSPISQKIIYKENERFQYKCNMGYEYSERGDAVCTESGWRPLPSCEEKS
Q: Which results are given for B1?
A: Kd: 744 nM; koff: 0.18 s⁻¹; kon: 242000 M⁻¹ s⁻¹

B2: Compound AQ (Fc fusion)
chain: ISCGSPPPILNGRISYYSTPIAVGTVIRYSCSGTFRLIGEKSLLCITKDKVDGTWDKPAPKCEYFNKYSSCPEPIVPGGYKIRGSTPYRHGDSVTFACKTNFSMNGQKSVWCQANNMWGPTRLPTCVSVFPGGGGSDAAVECPPCPAPPVAGPSVFLFPPKPKDTLMISRTPEVTCVVVDVSQEDPEVQFNWYVDGVEVHNAKTKPREEQFNSTYRVVSVLTVLHQDWLNGKEYKCKVSNKGLPSSIEKTISKAKGQPREPQVYTLPPSQEEMTKNQVSLTCLVKGFYPSDIAVEWESNGQPENNYKTTPPVLDSDGSFFLYSRLTVDKSRWQEGNVFSCSVMHEALHNHYTQKSLSLSLGK
Q: What does the source list for B2?
A: Kd: 679 nM; koff: 0.189 s⁻¹; kon: 278000 M⁻¹ s⁻¹

B3: Compound AP (Fc fusion)
chain: VECPPCPAPPVAGPSVFLFPPKPKDTLMISRTPEVTCVVVDVSQEDPEVQFNWYVDGVEVHNAKTKPREEQFNSTYRVVSVLTVLHQDWLNGKEYKCKVSNKGLPSSIEKTISKAKGQPREPQVYTLPPSQEEMTKNQVSLTCLVKGFYPSDIAVEWESNGQPENNYKTTPPVLDSDGSFFLYSRLTVDKSRWQEGNVFSCSVMHEALHNHYTQKSLSLSLGKGGGGAGGGGAGGGAGGGGSEDCNELPPRRNTEILTGSWSDQTYPEGTQAIYKCRPGYRSLGNVIMVCRKGEWVALNPLRKCQKRPCGHPGDTPFGTFTLTGGNVFEYGVKAVYTCNEGYQLLGEINYRECDTDGWTNDIPICEVVKCLPVTAPENGKIVSSAMEPDREYHFGQAVRFVCNSGYKIEGDEEMHCSDDGFWSKEKPKCVEISCKSPDVINGSPISQKIIYKENERFQYKCNMGYEYSERGDAVCTESGWRPLPSCEEKS
Q: Does B3 bind?
A: no binding (tested: 2 uM)
